# According to paper PMC4992171:
# Columns and labels:
# [1] = biological target: IFP2.0; test: SEC; side-by-side comparison of miRFPs with IFP2.0 and iRFP713 (Supplementary Fig. 3 or 4), HiLoad 16/600 Superdex 200; concentration not given
# [2] = biological target: IFP2.0; test: AUC; sedimentation velocity, 20 °C, 58,000 r.p.m., PBS, absorbance at 645 nm, protein at A645 ≈0.9; side-by-side comparison of miRFPs with IFP2.0 and iRFP713
# [3] = biological target: iRFP713; test: SEC; side-by-side comparison of miRFPs with IFP2.0 and iRFP713 (Supplementary Fig. 3 or 4), HiLoad 16/600 Superdex 200; concentration not given
# [4] = biological target: iRFP713; test: AUC; sedimentation velocity, 20 °C, 58,000 r.p.m., PBS, absorbance at 645 nm, protein at A645 ≈0.9; side-by-side comparison of miRFPs with IFP2.0 and iRFP713
Substance,stoichiometry N [1],stoichiometry N [2],stoichiometry N [3],stoichiometry N [4]
IFP2.0,2,2,–,–
iRFP713,–,–,2,2
